# Patent publication US20100310640A1
# T1: HLA-DR DRB1*0101 (human)
# T1 chain 1: not shown
# T1 chain 2: not shown
# T2: HLA-DR DRB1*0301 (human)
# T2 chain 1: not shown
# T2 chain 2: not shown
# T3: HLA-DR DRB1*0401 (human)
# T3 chain 1: not shown
# T3 chain 2: not shown
# T4: HLA-DR DRB1*0404 (human)
# T4 chain 1: not shown
# T4 chain 2: not shown
# T5: HLA-DR DRB1*0405 (human)
# T5 chain 1: not shown
# T5 chain 2: not shown
# T6: HLA-DR DRB1*0701 (human)
# T6 chain 1: not shown
# T6 chain 2: not shown
# T7: HLA-DR DRB1*0802 (human)
# T7 chain 1: not shown
# T7 chain 2: not shown
# T8: HLA-DR DRB1*0901 (human)
# T8 chain 1: not shown
# T8 chain 2: not shown
# T9: HLA-DR DRB1*1101 (human)
# T9 chain 1: not shown
# T9 chain 2: not shown
# T10: HLA-DR DRB1*1201 (human)
# T10 chain 1: not shown
# T10 chain 2: not shown
# T11: HLA-DR DRB1*1302 (human)
# T11 chain 1: not shown
# T11 chain 2: not shown
# T12: HLA-DR DRB4*0101 (human)
# T12 chain 1: not shown
# T12 chain 2: not shown
# T13: HLA-DR DRB5*0101 (human)
# T13 chain 1: not shown
# T13 chain 2: not shown
# T14: HLA-DR molecule DRB1*0101 (human)
# T14 chain 1: not shown
# T14 chain 2: not shown
# T15: HLA-DR molecule DRB1*0404 (human)
# T15 chain 1: not shown
# T15 chain 2: not shown
# T16: HLA-DR molecule DRB1*0405 (human)
# T16 chain 1: not shown
# T16 chain 2: not shown
# T17: HLA-DR molecule DRB1*0701 (human)
# T17 chain 1: not shown
# T17 chain 2: not shown
# T18: HLA-DR molecule DRB1*0802 (human)
# T18 chain 1: not shown
# T18 chain 2: not shown
# T19: HLA-DR molecule DRB5*0101 (human)
# T19 chain 1: not shown
# T19 chain 2: not shown
# B1: Cyclin D1.123 (peptide)
# peptide: KLCIYTDNSIRPEEL
# B2: Cyclin D1.109 (peptide)
# peptide: PPSMVAAGSVVAAVQ
# B3: Cyclin D1.252 (peptide)
# peptide: EALLESSLRQAQQNM
# B4: CEA.24 peptide 9019.0105 (peptide)
# peptide: LLTFWNPPTTAKLTI
# B5: Peptide 9019.0095 (peptide)
# peptide: RPRFRELVSEFSRMA
# B6: Peptide 9019.0022 (peptide)
# peptide: APTIRGDPECHLFYN
# B7: CEA.10 peptide 9019.0104 (peptide)
# peptide: RWCIPWQRLLLTASL
# B8: Peptide 9019.0018 (peptide)
# peptide: ELAVFREKVTEQHRQ
# B9: Peptide 9019.0099 (peptide)
# peptide: LQRYSEDPTVPLPSE
# B10: Her/neu.88 (peptide)
# peptide: HNQVRQVPLQRLRIV
# B11: CEA.33 peptide 9019.0106 (peptide)
# peptide: TAKLTIESTPFNVAE
# B12: Peptide 9019.0185 (peptide)
# peptide: LKSGMKELAVFREKV
# B13: Peptide 9019.0046 (Her2/neu.350) (peptide)
# peptide: LREVRAVTSANIQEF
# B14: Peptide 9019.0190 (IGFBP2.249) (peptide)
# peptide: ERGPLEHLYSLHIPN
# B15: Peptide 9019.0185 (IGFBP2.184) (peptide)
# peptide: LKSGMKELAVFREKV
# B16: Cyclin D1.209 (peptide 9019.0171) (peptide)
# peptide: VAAVQGLNLRSPNNF
# B17: CEA.33 (peptide 9019.0106) (peptide)
# peptide: TAKLTIESTPFNVAE
# B18: 1622.03 (peptide)
# peptide: KIPVAIKVLRENTSP
# B19: 9019.0077 (peptide)
# peptide: AYVMAGVGSPYVSRL
# B20: 9019.0050 (peptide)
# peptide: ITGYLYISAWPDSLP
# B21: 9019.0044 (peptide)
# peptide: CYGLGMEHLREVRAV
# B22: 9019.0064 (peptide)
# peptide: LQGLPREYVNARHCL
# B23: 9019.0062 (peptide)
# peptide: SQFLRGQECVEECRV
# B24: 9019.0048 (peptide)
# peptide: PESFDGDPASNTAPL
# B25: 9019.0002 (peptide)
# peptide: GMSYLEDVRLVHRDL
# B26: 9019.0068 (peptide)
# peptide: ILLVVVLGVVFGILI
# B27: 9019.0083 (peptide)
# peptide: CMQIAKGMSYLEDVR
# B28: 9019.0067 (peptide)
# peptide: ISAVVGILLVVVLGV
# B29: 9019.0089 (peptide)
# peptide: SDVWSYGVTVWELMT
# Biological target: T1, HLA-DR DRB1*0101 (human)
# Assay: radioligand inhibition, purified HLA-DR
# Conditions: remark: other sources report otherwise
row,Binder,IC50 [nM]
1,B1,1920
2,B2,6.8
3,B3,8210
4,B4,69
5,B5,26
6,B6,4030

# Biological target: T2, HLA-DR DRB1*0301 (human)
# Assay: radioligand inhibition, purified HLA-DR
# Conditions: remark: other sources report otherwise
row,Binder,IC50 [nM]
1,B1,64
2,B7,7860
3,B3,151
4,B5,6220
5,B6,31
6,B8,8620
7,B9,18

# Biological target: T3, HLA-DR DRB1*0401 (human)
# Assay: radioligand inhibition, purified HLA-DR
# Conditions: remark: other sources report otherwise
row,Binder,IC50 [nM]
1,B1,90
2,B3,605
3,B10,840
4,B5,38
5,B6,1640

# Biological target: T4, HLA-DR DRB1*0404 (human)
# Assay: radioligand inhibition, purified HLA-DR
# Conditions: remark: other sources report otherwise
row,Binder,IC50 [nM]
1,B11,41
2,B3,1020
3,B10,78
4,B4,52
5,B5,62
6,B9,13100

# Biological target: T5, HLA-DR DRB1*0405 (human)
# Assay: radioligand inhibition, purified HLA-DR
# Conditions: remark: other sources report otherwise
row,Binder,IC50 [nM]
1,B10,1300
2,B12,34
3,B5,151

# Biological target: T6, HLA-DR DRB1*0701 (human)
# Assay: radioligand inhibition, purified HLA-DR
# Conditions: remark: other sources report otherwise
row,Binder,IC50 [nM]
1,B1,1100
2,B10,80
3,B4,3.7
4,B5,309
5,B6,16800

# Biological target: T7, HLA-DR DRB1*0802 (human)
# Assay: radioligand inhibition, purified HLA-DR
# Conditions: remark: other sources report otherwise
row,Binder,IC50 [nM]
1,B2,1400
2,B7,263
3,B10,9
4,B12,260
5,B5,376

# Biological target: T8, HLA-DR DRB1*0901 (human)
# Assay: radioligand inhibition, purified HLA-DR
# Conditions: remark: other sources report otherwise
row,Binder,IC50 [nM]
1,B10,6940
2,B5,2320

# Biological target: T9, HLA-DR DRB1*1101 (human)
# Assay: radioligand inhibition, purified HLA-DR
# Conditions: remark: other sources report otherwise
row,Binder,IC50 [nM]
1,B3,756
2,B10,21
3,B4,52
4,B5,125
5,B9,94

# Biological target: T10, HLA-DR DRB1*1201 (human)
# Assay: radioligand inhibition, purified HLA-DR
# Conditions: remark: other sources report otherwise
row,Binder,IC50 [nM]
1,B7,1560
2,B11,2310
3,B10,42
4,B4,3000
5,B6,16900

# Biological target: T11, HLA-DR DRB1*1302 (human)
# Assay: radioligand inhibition, purified HLA-DR
# Conditions: remark: other sources report otherwise
row,Binder,IC50 [nM]
1,B1,879
2,B2,55
3,B7,2330
4,B11,35
5,B3,4760
6,B10,270
7,B6,1670
8,B9,280

# Biological target: T12, HLA-DR DRB4*0101 (human)
# Assay: radioligand inhibition, purified HLA-DR
# Conditions: remark: other sources report otherwise
row,Binder,IC50 [nM]
1,B1,33
2,B2,91
3,B11,53
4,B3,4030
5,B10,18
6,B5,351
7,B6,2510

# Biological target: T13, HLA-DR DRB5*0101 (human)
# Assay: radioligand inhibition, purified HLA-DR
# Conditions: remark: other sources report otherwise
row,Binder,IC50 [nM]
1,B1,4620
2,B4,31
3,B5,26

# Biological target: T14, HLA-DR molecule DRB1*0101 (human)
# Assay: radioligand inhibition, purified HLA-DR
# Conditions: remark: other sources report otherwise
row,Binder,IC50 [nM]
1,B13,17
2,B14,7.7

# Biological target: T15, HLA-DR molecule DRB1*0404 (human)
# Assay: radioligand inhibition, purified HLA-DR
# Conditions: remark: other sources report otherwise
row,Binder,IC50 [nM]
1,B13,8.2
2,B14,29

# Biological target: T16, HLA-DR molecule DRB1*0405 (human)
# Assay: radioligand inhibition, purified HLA-DR
# Conditions: remark: other sources report otherwise
row,Binder,IC50 [nM]
1,B15,34
2,B14,110

# Biological target: T17, HLA-DR molecule DRB1*0701 (human)
# Assay: radioligand inhibition, purified HLA-DR
# Conditions: remark: other sources report otherwise
row,Binder,IC50 [nM]
1,B14,18

# Biological target: T18, HLA-DR molecule DRB1*0802 (human)
# Assay: radioligand inhibition, purified HLA-DR
# Conditions: remark: other sources report otherwise
row,Binder,IC50 [nM]
1,B15,260

# Biological target: T19, HLA-DR molecule DRB5*0101 (human)
# Assay: radioligand inhibition, purified HLA-DR
# Conditions: remark: other sources report otherwise
row,Binder,IC50 [nM]
1,B13,94
2,B14,4000

# Biological target: T1, HLA-DR DRB1*0101 (human)
# Assay: radioligand competition, purified HLA-DR
# Conditions: remark: other sources report otherwise
row,Binder,IC50 [nM]
1,B16,44

# Biological target: T4, HLA-DR DRB1*0404 (human)
# Assay: radioligand competition, purified HLA-DR
# Conditions: remark: other sources report otherwise
row,Binder,IC50 [nM]
1,B17,41

# Biological target: T9, HLA-DR DRB1*1101 (human)
# Assay: radioligand competition, purified HLA-DR
# Conditions: remark: other sources report otherwise
row,Binder,IC50 [nM]
1,B17,6000

# Biological target: T11, HLA-DR DRB1*1302 (human)
# Assay: radioligand competition, purified HLA-DR
# Conditions: remark: other sources report otherwise
row,Binder,IC50 [nM]
1,B17,35

# Biological target: T12, HLA-DR DRB4*0101 (human)
# Assay: radioligand competition, purified HLA-DR
# Conditions: remark: other sources report otherwise
row,Binder,IC50 [nM]
1,B17,53

# Biological target: T1, HLA-DR DRB1*0101 (human)
# Assay: radiolabeled-peptide inhibition, purified HLA-DR
# Conditions: remark: other sources report otherwise
row,Binder,IC50 [nM]
1,B18,1500
2,B19,92
3,B20,96
4,B21,130
5,B22,354
6,B23,462

# Biological target: T2, HLA-DR DRB1*0301 (human)
# Assay: radiolabeled-peptide inhibition, purified HLA-DR
# Conditions: remark: other sources report otherwise
row,Binder,IC50 [nM]
1,B24,989
2,B21,265
3,B22,9000
4,B25,27

# Biological target: T3, HLA-DR DRB1*0401 (human)
# Assay: radiolabeled-peptide inhibition, purified HLA-DR
# Conditions: remark: other sources report otherwise
row,Binder,IC50 [nM]
1,B18,3860
2,B26,635
3,B27,2650
4,B20,243
5,B21,1030
6,B22,201
7,B28,420
8,B23,1020
9,B29,2760

# Biological target: T4, HLA-DR DRB1*0404 (human)
# Assay: radiolabeled-peptide inhibition, purified HLA-DR
# Conditions: remark: other sources report otherwise
row,Binder,IC50 [nM]
1,B24,9020
2,B18,125
3,B26,3530
4,B27,867
5,B21,493
6,B28,3000
7,B23,4550

# Biological target: T5, HLA-DR DRB1*0405 (human)
# Assay: radiolabeled-peptide inhibition, purified HLA-DR
# Conditions: remark: other sources report otherwise
row,Binder,IC50 [nM]
1,B19,596
2,B26,376
3,B20,8.5
4,B21,5120
5,B28,447
6,B25,4320
7,B29,1900

# Biological target: T6, HLA-DR DRB1*0701 (human)
# Assay: radiolabeled-peptide inhibition, purified HLA-DR
# Conditions: remark: other sources report otherwise
row,Binder,IC50 [nM]
1,B24,2820
2,B26,780
3,B27,116
4,B21,271
5,B22,1900
6,B28,941
7,B23,540
8,B25,5410

# Biological target: T9, HLA-DR DRB1*1101 (human)
# Assay: radiolabeled-peptide inhibition, purified HLA-DR
# Conditions: remark: other sources report otherwise
row,Binder,IC50 [nM]
1,B24,12600
2,B18,4110
3,B26,2460
4,B20,2570
5,B25,244
6,B29,2640

# Biological target: T10, HLA-DR DRB1*1201 (human)
# Assay: radiolabeled-peptide inhibition, purified HLA-DR
# Conditions: remark: other sources report otherwise
row,Binder,IC50 [nM]
1,B21,19000

# Biological target: T11, HLA-DR DRB1*1302 (human)
# Assay: radiolabeled-peptide inhibition, purified HLA-DR
# Conditions: remark: other sources report otherwise
row,Binder,IC50 [nM]
1,B24,3900
2,B19,402
3,B26,478
4,B27,2230
5,B20,751
6,B22,670
7,B28,443
8,B25,3790

# Biological target: T12, HLA-DR DRB4*0101 (human)
# Assay: radiolabeled-peptide inhibition, purified HLA-DR
# Conditions: remark: other sources report otherwise
row,Binder,IC50 [nM]
1,B18,7800
2,B19,5060
3,B26,11000
4,B27,3000
5,B20,270
6,B21,444
7,B22,2550
8,B28,3110
9,B25,2540

# Biological target: T13, HLA-DR DRB5*0101 (human)
# Assay: radiolabeled-peptide inhibition, purified HLA-DR
# Conditions: remark: other sources report otherwise
row,Binder,IC50 [nM]
1,B18,1500
2,B19,308
3,B27,130
4,B20,67
5,B21,3780
6,B23,7040
7,B29,5420
